Measured values published in the nanobody polyreactivity screen of Harvey et al. (2022).

Assay: yeast display, Sf9 membrane polyspecificity reagent, FACS + sequencing; frameworks hold sequencing errors
Method in brief: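 A synthetic nanobody library was expressed on Saccharomyces cerevisiae BJ5465 by galactose induction for 36–48 hours. The library was stained for 1 hour at 4 °C with 10% biotinylated, detergent-solubilized Sf9 membrane reagent and enriched with streptavidin microbeads before FACS. Low and high (top ~1%) gates were set on anti-HA fluorescence for expression and streptavidin fluorescence for reagent binding, and each polyreactivity label reflects the gate of origin.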

Row | Sequence | polyreactivity (PSR sort gate)
1 | QVQLVESGGGLVQAGGSLRLICAASGRTSYIDAMGWYREAPGKERELVARIRSGGSTNYADSVKGRFTISRDNAKNPVYVQMNSLKPEDTAVYYCNADFAFSRKYQANPYSAYDYWGQGTQVTVSS | high polyreactivity
2 | QVQLVESGGGLVQAGGSLRLICAASGSIFARYAMGWYRQAPGKERELVAAITGRGGSTYYADSVKGRFTISRDNAKNTVYLQMNSLKPEDTAVYYCNAVGHTSIRRALDILDYWGQGTQVTVSS | high polyreactivity
3 | QVQLVESGGGLVQAGGSLRLICAASGSIFCYAMGWYRQAPGKERELVAGISRGGSTYYADSVKGRFTISRDNAKNTGYLKMNSLKPEDTAVYYCNTAGYYGTPYNYWGQGTQVTVSS | low polyreactivity
4 | QVQLVESGGGLVQAGGSLRLICAASGSIFDYYTRGWYRQAPGKERELVASITQSGGSTYYADSVKGRFTISRDNGKNTVYLQMNSLKPEDTAVYYCAADFSIVKMDYWGQGTQVTVSS | low polyreactivity
5 | QVQLVESGGGLVQAGGSLRLICAASGSIFGHNAMGWYRQAPGKERELVAAISRGTRTNYADSVKGRFTISRDNEKNTVYLQMNSLKPEDTAVYYCNLQPGRGPYVGRKYGYWGQGTQVTVSS | high polyreactivity
6 | QVQLVESGGGLVQAGGSLRLICAASGSIFGSNAMGWYRQAPGKEREFVAVITWRVGDTYYADSVKGRFTISRDNAKNTVYLQMKSLKPEDTAVYYCNVDWKVYGAPDYRIAWKYDYWGQGTQVTVSS | low polyreactivity
7 | QVQLVESGGGLVQAGGSLRLICAASGSIFGVYAMGWYSQAPGKERELVATITRGGSTYYADSVKGRFTISRDNAKNTGYLQMNSLKPEDTSVYYGARAPVYFRHKYYYWGQGTQVTVSS | high polyreactivity
8 | QVQLVESGGGLVQAGGSLRLICAASGSIFLTNAMGWYRQAPGKEREFVAAIDWGCTITYYADSVKGRFTISRDNAKNTVYLQMNSLKPEDTAVYYCGADPTYPYGYWGQGTQVSVSS | low polyreactivity
9 | QVQLVESGGGLVQAGGSLRLICAASGSIFNAYAMGWYRQAPGKEREFVAAITGGGTYYADSVKGRFTISRDNAKNTVYLQMNSLKPEDTAVYYCNADYGTSRHTFWDYESWGQGTQVTVSS | low polyreactivity
10 | QVQLVESGGGLVQAGGSLRLICAASGSIFNGYAMGWYSQAPGKERELVADIRSGGSTYYADSVKGRFTISRDNAKNTVYLQMNSLKPEDTAVYYCAADTITDGYDYWGQGTQVTVSS | low polyreactivity
11 | QVQLVESGGGLVQAGGSLRLICAASGSIFNGYVMGWYRQAPGKERELVASINRGGTTNYADSVKGRFTISRDNAKNTVYLLMNSLKPEETAVYYCAVDDDANSLGGYYVLFDYWGQGTQVTVSS | low polyreactivity
12 | QVQLVESGGGLVQAGGSLRLICAASGSIFPSYAMGWYRQAPGKERELVAAISVSGGRTYYADSVKGRFTISRDNAKYSVYLQMNSLKPEDTAVYYCATVGKQKYDAKYGYWGQGTQVTVSS | high polyreactivity
13 | QVQLVESGGGLVQAGGSLRLICAASGSIFRYYAMGWYRQAPGKERELVAVITRSSSTYYADSVKGRFTISRDNAKNTVYLQMNSLKPEDTAVYDCAARYRSGAAGYNYWGQGTQVTVSS | high polyreactivity
14 | QVQLVESGGGLVQAGGSLRLICAASGSIFSTNTKGWYRQAPGKERELVAAISISGGSTHYADSVKGRFTISRDNAKNPVYLQMNSLKPEYTAVYYCAADLWYYAYSYDYWGRGTQVTVSS | high polyreactivity
15 | QVQLVESGGGLVQAGGSLRLICAASGSIFSYYAMGWYIKAPGKERELVAVINSGGRTNYADSVKGRFTISRDNAKNTVYVQMNSLKPEDTAVYYCAAQCYFVERAGRYYRGEYWGQGTQVTVSS | high polyreactivity
16 | QVQLVESGGGLVQAGGSLRLICAASGSIFTYYAMGWYRQAPGKDRDLVAAINWSGGSTYYADSVKGRFTISRDNAKNTVYLQINSLNPEDTAVYYCSNDYYARRHSPRYDYWGQGTQVTVSS | low polyreactivity
17 | QVQLVESGGGLVQAGGSLRLICAASGSIFVNYAMGWYRQAPGKERELVAAITRSGGGTYYADSVKGRFTISRDNAKNTVYLQMNSLKPEVTAVYYCAARLGYAGNRDGYWGQGTQVTVSS | high polyreactivity
18 | QVQLVESGGGLVQAGGSLRLICAASGSIFYQNAMVGYRQAPGKERELVAAIRSRGGSTYYADSVKGRFTISRDNATNTVYLQMNSLKPEDTAVYYCNKLSRTTSYTYNYWGQGTQVTVSS | low polyreactivity
19 | QVQLVESGGGLVQAGGSLRLICAASGSIFYYYAMVWYRQAPGKERELVAAISSGGSTNYADSVKGRFTISRDNAKNTVYLQMNSLKPEDTAVYYCAADYRAQYVVWYTYDYWGQGTQVTVSS | low polyreactivity
20 | QVQLVESGGGLVQAGGSLRLICAASGSILGTYAMGWYRQAPGKERELVAAITLSTDGTYYADSVKGRFTISRDNAKNTVYLQMNCLKPEDTAVYYFAAPWNWRWVTQWGYYVRADYYWGQGSQVTVSS | low polyreactivity

Row | Sequence | polyreactivity (PSR sort gate)
21 | QVQLVESGGGLVQAGGSLRLICAASGSILNWYAMGWYRQAPGKERELVAAINRGTGTYYADSVKGRFTISRDNAKNTVYLQMISLKTEDTAVYYCAAEWYVYDFEFYYWGQGTQVTVSS | high polyreactivity
22 | QVQLVESGGGLVQAGGSLRLICAASGSILQRNAMGWYRPAPGKERELVAAISWSGDNTYYADSVKGRFTISRDNAKNTVYLQMNSVKPEDTAVYYCATDADIYFQEYDYWGQGTQVTVSS | low polyreactivity
23 | QVQLVESGGGLVQAGGSLRLICAASGSILVSYARGWYRQAPGKERELVAAITSGGRTKYADSVKGRFTISRDNAKNTVYLQMNSLKPEDNAVYYCAADDPLSYQFDYWGQGTQVTVSS | high polyreactivity
24 | QVQLVESGGGLVQAGGSLRLICAASGSISVVNMGWYRQSPGKERELVASITSSGSTTYADSVKGRFTISRDNAKNTVYLQMNSVKPEDTAVYYCASDVGTDYTYQHPAGAAYDYWGQGTQVTVSS | low polyreactivity
25 | QVQLVESGGGLVQAGGSLRLICAASGSNFWSYAMGWYRQAPGKERELVADITWSGGNTYADSVKGRFTISRDNAMNTVYLQMNSLKPEDTAVYYCAADPAHGTKWYVYPSHDDYWGQGTQVTVSS | low polyreactivity
26 | QVQLVESGGGLVQAGGSLRLICAASGSNFYVYAMGWYRQAPGKERELVAAISDSGSRTYYADSVKGRFTISRDNAKNTVYLKKNSLKPEDTAVYYCAALTRRTGYTYKEYYWGQGTQVTVSS | high polyreactivity
27 | QVQLVESGGGLVQAGGSLRLICAASGSTFAFYAMGWYRQAPGKERELVAAISRSGGRTYYADSVKGRFTISRDNAKNTVYLQMNSLKPEDTAVYYCAAPSRITTGPHREYDYWGQGTQVTVSS | high polyreactivity
28 | QVQLVESGGGLVQAGGSLRLICAASGSTFAIYAMGWYRQAPGKERELVAAISWRTGSTYYADSVKGRFTISRDNAKNTVYLQMNSLKPEDTAVYYCAVRGRLQYSGGEGNYWGQGTQVTVSS | high polyreactivity
29 | QVQLVESGGGLVQAGGSLRLICAASGSTFDGNVMGWYRQAPGKERELVADIDSGGSTNYADSVKGRFTISRDNAKNTVYLQMNSLKPEDTAFYYCNAEWDDSFIRWFRYRGNYWGQGTQVTVSS | low polyreactivity
30 | QVQLVESGGGLVQAGGSLRLICAASGSTFDVNAMGWYRQAPGKEREFVAANSWSGGSTYYADSVKGRFTISRDIAKNTVYLQMNSLKPEDTAVYYCNADYVFKDGLGFRGLAGGDYWGQGTQVTVSS | low polyreactivity
31 | QVQLVESGGGLVQAGGSLRLICAASGSTFDYYAKGWYRQATGKERELVASITWGDGSTYYADSVKGRFTISRDNAKNTVYLQRNSLKPEDTAVYYCNDDDTQLESYAPGHGYDYWGQGTQVTVSS | low polyreactivity
32 | QVQLVESGGGLVQAGGSLRLICAASGSTFDYYAMGWYRQAPGKERELVAAISRRGGNTYYADSVKGRFTISRDNAKNTVYLQMNSLKQEDTAVYYCAAQTYKWYDWGHGTQVTVSS | high polyreactivity
33 | QVQLVESGGGLVQAGGSLRLICAASGSTFFPYAMGWYRQAPGKERELVAGISSDGGTSYADSVKGRFTISRDNAKNTVYLQMNSLKPEDTAVYYCAAYYTHQPAHHYWGQGTQVTVSS | low polyreactivity
34 | QVQLVESGGGLVQAGGSLRLICAASGSTFIPNAMGWYRQSPGKERELVAAISTGGSTNYADSVKGRFTISRDNAKNTVYLQINCLKPEDTAVYYCNARRGYYNPGRRFYYWGQGTQVTVSS | low polyreactivity
35 | QVQLVESGGGLVQAGGSLRLICAASGSTFNSYTMGWYRQAPGKERELVAAISSGGITYYADSEKGRFTISRDNAKNTVYLLMNSLKPEDTAVYYCADRRYRYGYNYWGQGTQVTVSS | high polyreactivity
36 | QVQLVESGGGLVQAGGSLRLICAASGSTFNTYAMGRYRQAPGKERELVAAITWSGGRTYYADSVKGRFTISRDNAKNTVYLQMNSLKPEDTAVYYCAKGKGPTEYDYWGQGTQVTVSS | high polyreactivity
37 | QVQLVESGGGLVQAGGSLRLICAASGSTFSINAMGRYRQAPGKERELVAAITTSVDSTYYADSVKGRFTISRDNAKNTVYLQMNSLIPEDTAVYYCAVAFVQFNQYDYWGQGTQVTVSS | low polyreactivity
38 | QVQLVESGGGLVQAGGSLRLICAASGSTFSSNAMGWYRQAPGKERELVAAISRSGVTTYYADSVKGRFTISRDNAKNTVYLQKHSLKPEDTAVYYCAAQPYSRRYGRYRGFQYKYEYWGQGTQVTVSS | low polyreactivity
39 | QVQLVESGGGLVQAGGSLRLICAASGSTFTLYAMGWYRQAPGKERELVAAISGIGDSTYYADSVKGRFTISRDNAKNTVYLQMNSLKPEDTAVYYCAADGEYRYDWEYESWGQGTQVTVSS | low polyreactivity
40 | QVQLVESGGGLVQAGGSLRLICAASGSTFVPNAMGGYRQAPGKERELVAAITASTGRTYYADSVKGRFTISRDNAKNTVYLQMNSLKPEDTAVYYCAAYFVYWSDLEHYYPVEYGYWGQGTQVTVSS | high polyreactivity
